Measured values as given in PMC3157347.

Target: V. parahaemolyticus YeaZ, fragment 1-213 as in the crystals (Vibrio parahaemolyticus)
Experiment: crystal structure; X-ray, 3.1 Å; asymmetric unit with four subunits (two dimers related by a non-crystallographic two-fold axis); crystals of fragment 1-213; no nucleotide

## V. parahaemolyticus YeaZ, fragment 1-213 as in the crystals (domain or fragment)
  stoichiometry N: 2
